The assay has as its target HLA-A*02:01 (Homo sapiens, UniProt P04439, D140Y/D185E/D98H/E176V/E277Q/G131W/G231S/I119V/I121R/I166T/I218V/L300P/L318F/N151K/N90K/P208A/P217A/Q86G/Q94H/R138H/R169H/T345S). The assay can be described thus: MHC binding assay: UV-ligand exchange with β2m ELISA. The following applies: binding of HLA-class I restricted peptides to HLA-A*02:01. From the text:
Candidate peptides for T cell based therapies according to the present invention were further tested for their MHC binding capacity (affinity). The individual peptide-MHC complexes were produced by UV-ligand exchange, where a UV-sensitive peptide is cleaved upon UV-irradiation, and exchanged with the peptide of interest as analyzed. Only peptide candidates that can effectively bind and stabilize the peptide-receptive MHC molecules prevent dissociation of the MHC complexes. To determine the yield of the exchange reaction, an ELISA was performed based on the detection of the light chain (β2m) of stabilized MHC complexes. The assay was performed as generally described in Rodenko et al. (Rodenko et al., 2006).
96 well MAXISorp plates (NUNC) were coated over night with 2 ug/ml streptavidin in PBS at room temperature, washed 4× and blocked for 1 h at 37° C. in 2% BSA containing blocking buffer. Refolded HLA-A*02:01/MLA-001 monomers served as standards, covering the range of 15-500 ng/ml. Peptide-MHC monomers of the UV-exchange reaction were diluted 100-fold in blocking buffer. Samples were incubated for 1 h at 37° C., washed four times, incubated with 2 ug/ml HRP conjugated anti-β2m for 1 h at 37° C., washed again and detected with TMB solution that is stopped with […]. Absorption was measured at 450 nm. Candidate peptides that show a high exchange yield (preferably higher than 50%, most preferred higher than 75%) are generally preferred for a generation and production of antibodies or fragments thereof, and/or T cell receptors or fragments thereof, as they show sufficient avidity to the MHC molecules and prevent dissociation of the MHC complexes.

Regarding “41 (RLNGEGVGQVNISV; listed as Homo sapiens) [compound 41]”, the “Peptide exchange (MHC class I binding score, peptide exchange yield)” value (“Peptide exchange” below) is “++ (>20% = ++)”.
As to “81 (VLAENPDIFAV; listed as Homo sapiens) [compound 81]”, the “Peptide exchange” value was “+++ (>50 = +++)”.
Take “52 (LLFTGLVSGV; listed as Homo sapiens) [compound 52]”: the “Peptide exchange” value is listed as “+++ (>50 = +++)”.
In the case of “46 (GLISSIEAQL; listed as Homo sapiens) [compound 46]”, the “Peptide exchange” value is reported as “++++ (>75% = ++++)”.
For “31 (HLATVKLLV; listed as Homo sapiens) [compound 31]”, the “Peptide exchange” value is “++++ (>75% = ++++)”.
As for “87 (ALPEPSPAA; listed as Homo sapiens) [compound 87]”, the “Peptide exchange” value is recorded as “+++ (>50 = +++)”.
In the case of “50 (ALSNVVHKV; listed as Homo sapiens) [compound 50]” it was “++++ (>75% = ++++)”; in that of “43 (AVLGGKLYV; listed as Homo sapiens) [compound 43]”, “++++ (>75% = ++++)”; in that of “7 (ALEEANADLEV; listed as Homo sapiens) [compound 7]”, “+++ (>50 = +++)”.
Regarding “5 (VCPPGGIQEV; listed as Homo sapiens) [compound 5]”, the “Peptide exchange” value is given as “+++ (>50 = +++)”.
In the case of “42 (ALYTSGHLL; listed as Homo sapiens) [compound 42]” it was “++++ (>75% = ++++)”.
In the case of “55 (VLNVGVAEV; listed as Homo sapiens) [compound 55]” it was “+++ (>50 = +++)”.
Regarding “68 (KILEMDDPRA; listed as Homo sapiens) [compound 68]”, the “Peptide exchange” value is “++ (>20% = ++)”.
The result for “58 (SLSDIQPCL; listed as Homo sapiens) [compound 58]” reads “+++ (>50 = +++)”; that for “49 (YLWEAHTNI; listed as Homo sapiens) [compound 49]”, “++++ (>75% = ++++)”; that for “88 (LMAPAPSTV; listed as Homo sapiens) [compound 88]”, “+++ (>50 = +++)”.
In the case of “38 (KLLPGVQYV; listed as Homo sapiens) [compound 38]” it was “++++ (>75% = ++++)”; in that of “48 (YLLDYPNNL; listed as Homo sapiens) [compound 48]”, “+++ (>50 = +++)”.
Regarding “91 (MLFENMGAYTV; listed as Homo sapiens) [compound 91]”, the “Peptide exchange” value was “++++ (>75% = ++++)”.
The result for “84 (ALMAGCIQEA; listed as Homo sapiens) [compound 84]” reads “++++ (>75% = ++++)”; that for “9 (STASAITPSV; listed as Homo sapiens) [compound 9]”, “++ (>20% = ++)”; that for “6 (ALYDAELSQM; listed as Homo sapiens) [compound 6]”, “+++ (>50 = +++)”.
Consider “45 (GLIEWLENTV; listed as Homo sapiens) [compound 45]”, for which the “Peptide exchange” value is “++++ (>75% = ++++)”.
With “4 (ILDINDNPPV; listed as Homo sapiens) [compound 4]”, the “Peptide exchange” value is “+++ (>50 = +++)”.
On to “76 (ILFDEVLTFA; listed as Homo sapiens) [compound 76]”, for which the “Peptide exchange” value is listed as “++++ (>75% = ++++)”.
In the case of “24 (LLIAINPQV; listed as Homo sapiens) [compound 24]” it was “++++ (>75% = ++++)”; in that of “40 (LLTPLNLQI; listed as Homo sapiens) [compound 40]”, “+++ (>50 = +++)”; in that of “79 (GLHQDFPSVVL; listed as Homo sapiens) [compound 79]”, “+++ (>50 = +++)”.
For “90 (TLNDGVVVQV; listed as Homo sapiens) [compound 90]”, the “Peptide exchange” value is reported as “++++ (>75% = ++++)”.
Take “2 (PVCPPGGIQEV; listed as Homo sapiens) [compound 2]”: the “Peptide exchange” value is on record as “+++ (>50 = +++)”.
In the case of “44 (GLGDDSFPI; listed as Homo sapiens) [compound 44]” it was “++++ (>75% = ++++)”.
Consider “83 (QLLQYVYNL; listed as Homo sapiens) [compound 83]”, for which the “Peptide exchange” value is on record as “++++ (>75% = ++++)”.
The result for “60 (SLGNFKDDLL; listed as Homo sapiens) [compound 60]” reads “+++ (>50 = +++)”; that for “74 (SLTSFLISL; listed as Homo sapiens) [compound 74]”, “+++ (>50 = +++)”.
In the case of “22 (KLPEPCPSTV; listed as Homo sapiens) [compound 22]” it was “+++ (>50 = +++)”; in that of “85 (QLIEKITQV; listed as Homo sapiens) [compound 85]”, “+++ (>50 = +++)”.
As to “73 (YIDPYKLLPL; listed as Homo sapiens) [compound 73]”, the “Peptide exchange” value is reported as “+++ (>50 = +++)”.
As for “57 (AILGFALSEA; listed as Homo sapiens) [compound 57]”, the “Peptide exchange” value was “++++ (>75% = ++++)”.
The result for “25 (SLCPPGGIQEV; listed as Homo sapiens) [compound 25]” reads “++++ (>75% = ++++)”; that for “67 (AQLNLIWQL; listed as Homo sapiens) [compound 67]”, “++++ (>75% = ++++)”; that for “23 (SLPESGLLSV; listed as Homo sapiens) [compound 23]”, “+++ (>50 = +++)”.
For the substance “27 (YLAEPQWAV; listed as Homo sapiens) [compound 27]”, the “Peptide exchange” value is on record as “++++ (>75% = ++++)”.
In the case of “72 (SLDGNPLAV; listed as Homo sapiens) [compound 72]” it was “++++ (>75% = ++++)”.
In the case of “71 (SLFPYVVLI; listed as Homo sapiens) [compound 71]” it was “++++ (>75% = ++++)”.
For “86 (SLQERQVFL; listed as Homo sapiens) [compound 86]”, the “Peptide exchange” value was “+++ (>50 = +++)”.
The result for “56 (FLQLETEQV; listed as Homo sapiens) [compound 56]” reads “++++ (>75% = ++++)”; that for “37 (ILLEDVFQL; listed as Homo sapiens) [compound 37]”, “++++ (>75% = ++++)”.
The result for “78 (VLYGDVEEL; listed as Homo sapiens) [compound 78]” reads “+++ (>50 = +++)”; that for “80 (GLYGIKDDVFL; listed as Homo sapiens) [compound 80]”, “++++ (>75% = ++++)”.
On to “63 (ALMDEINFMKM; listed as Homo sapiens) [compound 63]”, for which the “Peptide exchange” value was “++++ (>75% = ++++)”.
In the case of “34 (ALDTFSVQV; listed as Homo sapiens) [compound 34]” it was “++++ (>75% = ++++)”; in that of “35 (ALVGDVILTV; listed as Homo sapiens) [compound 35]”, “++++ (>75% = ++++)”.
The result for “69 (YVMESMTYL; listed as Homo sapiens) [compound 69]” reads “++++ (>75% = ++++)”; that for “62 (ILSSACYTV; listed as Homo sapiens) [compound 62]”, “++++ (>75% = ++++)”.
Consider “77 (SLRAFLMPI; listed as Homo sapiens) [compound 77]”, for which the “Peptide exchange” value is “++ (>20% = ++)”.
As for “65 (ALWGFFPVLL; listed as Homo sapiens) [compound 65]”, the “Peptide exchange” value is “++++ (>75% = ++++)”.
The result for “70 (FLFPAFLTA; listed as Homo sapiens) [compound 70]” reads “++++ (>75% = ++++)”.
